The results in this text go back to patent US6011146A, “Altered major histocompatibility complex (MHC) determinant and methods of using the determinant” (Institut Pasteur, priority 1995, dated 2000).

“And” between values parts separate entries of the source, which are not always exact repeats. Equal values may be shown once.

The subject of one test is mAb 34-1-2. In words: Immunoprecipitation of 35S-labeled SC-K^d molecules from transfected COS-1 cell extracts by mAb 34-1-2. Format: binding. How it is done: (§1) COS-1 cells (usually 10^7 cells) were transfected with pSC-K^d -15 DNA, labeled and lysed as above. […] After the final wash in PBS, SC-K^d -15 was eluted from the matrix with an equal volume of 3M thiocyanate for 10 min on ice. After an overnight dialysis in PBS containing 0.1% NP40, 0.05% Tween and 0.2% BSA, SC-K^d -15 was used in direct binding test as below. Its purity was assessed by SDS-PAGE.

Test [1] concerns the target K^d molecules isolated from the spleen of BALB/c mice (mouse) (UniProt P01887).
Test [2] deals with SC-K^d -15 (mouse) (UniProt P01887).
Test [3] deals with K^d molecules isolated from the spleen of BALB/c mice (mouse) (UniProt P01887). In words: direct peptide binding assay, peptide coated at 10 µg/ml pH 9.6, 125I-labeled H-2K, input 100000 cpm, no coated peptide 1471 and 1595, duplicate.
Test [4] addresses SC-K^d -15 (mouse) (UniProt P01887). Description: direct peptide binding assay, peptide coated at 10 µg/ml pH 9.6, 35S-labeled SC-Kd, input 6000 cpm, no coated peptide 228 and 223, duplicate.
A further test deals with HLA-DR3 (Homo sapiens, UniProt P01903+P01911). In words: Direct peptide binding assay with purified 125I-labeled HLA-DR3 (positive control). How it is done:
(§2) Direct Peptide Binding Assay. Wells of microtiter plates are pretreated with 100 μl 2.5% glutaraldehyde in distilled water for 2 h at 20° C., washed with distilled water, […] buffer, pH 9.6, or in PBS, pH 7.4 or pH 5.0. Remaining free sites are blocked by incubation for 2 h at 20° C. with BSA diluted 1% in PBS containing 0.05% Tween 20 (Tw) and 0.02% sodium azoture. […] After extensive washing, the radioactivity of each well is counted.

In a further test the target is DRw13 (Homo sapiens, UniProt P01903+P01911). In words: Direct peptide binding assay with purified 125I-labeled HLA-DRw13 (positive control). How it is done: as §2
For test [5], the target named is T1, SC-K^d -15 (Mus musculus, UniProt P01887+P01902).
T1 construct: connecting residue 276 of K^d heavy chain to the first residue of β2 -microglobulin through spacers; made in house
T1 sequence (P01902+P01887 with tags, fused parts or gaps): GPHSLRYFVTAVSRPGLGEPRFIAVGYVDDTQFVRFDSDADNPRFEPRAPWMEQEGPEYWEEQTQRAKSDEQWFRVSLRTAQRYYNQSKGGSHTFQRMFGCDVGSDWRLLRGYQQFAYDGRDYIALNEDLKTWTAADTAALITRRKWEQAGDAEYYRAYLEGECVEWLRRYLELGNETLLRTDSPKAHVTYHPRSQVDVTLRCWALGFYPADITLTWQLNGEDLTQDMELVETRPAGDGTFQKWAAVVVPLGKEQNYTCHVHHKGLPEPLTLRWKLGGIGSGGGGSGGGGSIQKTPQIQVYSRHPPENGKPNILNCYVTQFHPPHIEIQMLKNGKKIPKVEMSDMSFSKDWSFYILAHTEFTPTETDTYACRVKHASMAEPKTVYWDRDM
Description: Direct peptide binding assay, solid phase, with purified 35S-labeled SC-Kd. Conditions: for binding of peptide to SC-K^d -15 (in words): direct binding assay. The method, then: (§3) Direct Peptide Binding Assay. Wells of microtiter plates are pretreated with 100 μl 2.5% glutaraldehyde in distilled water for 2 h at 20° C., washed with distilled water, and coated for 16 h at 4° C. with 100 μl of peptide diluted at 5 μg/ml either in carbonate-bicarbonate buffer, pH 9.6, or in PBS, pH 7.4 or pH 5.0. Remaining free sites are blocked by incubation for 2 h at 20° C. with BSA diluted 1% in PBS containing 0.05% Tween 20 (Tw) and 0.02% sodium azoture. After washing, purified ^125 I-HLA molecules (100 μl containing 1.5×10^5 cpm, 10^-9 M) diluted in PBS containing 1% BSA, 0.05% Tw, 0.02% sodium azoture, 1 mM PMSF, and 10 μg/ml trypsin inhibitor are added and incubated for 20 h at 20° C. After extensive washing, the radioactivity of each well is counted.
Inhibition Peptide Binding Assay. Concentrations of 0.1-100 μM of competitor peptides are incubated in tubes for 0-3 h at 20° C. with ^125 I-HLA (10^-9 M) diluted in PBS--BSA--Tw containing the protease inhibitors as mentioned above. […] After extensive washing, the radioactivity in each well is counted and the percent of inhibition is calculated.
as §1
Peptides used in this study are described in Choppin et al. (Choppin, J., Martinon, F., Gomard, E., Bahraoui, E., Connan, F., Bouillot, F., and Levy, J.-P, J. Exp. Med., 1990. 172:889 and references therein), except for HLA-Cw3 and HLA-A24 described in Maryanski, J. Ll, Pala, P., Cerottini, J.-C, and Corradin, G., J. Exp. Med. 1988. 167:1391. Binding assays were performed as described in Choppin, J., Martinon, F., Gomard, E., Bahraoui, E., Connan, F., Bouillot, F., and Levy, J.-P, J. Exp. Med., 1990. 172:889. DR3, DRw13, and K^d molecules were also purified and iodinated as in Choppin, J., Martinon, F., Gomard, E., Bahraoui, E., Connan, F., Bouillot, F., and Levy, J.-P, J. Exp. Med., 1990. 172:889.
K^d molecules isolated from the spleen of BALB/c mice were then purified and iodinated. They were purified by affinity chromatography on a 20-8-4 mAb column and compared binding of peptides by the latter and by ^35 S-labeled SC-K^d -15 in the assay of Bouillot et al. (Bouillot, M., Choppin, J., Cornille, F., Martinon, F., Papo, T., Gomard, E., FournieZaluski, M.-C., and Levey, J.-P., Nature 1989. 339:473 and Choppin, J., Martinon, F., Gomard, E., Bahraoui, E., Connan, F., Bouillot, F., and Levy, J.-P, J. Exp. Med., 1990. 172:889).

In test [6] the target is T2, K^d molecules isolated from the spleen of BALB/c mice (Mus musculus, UniProt P01902).
T2 construct: K^d molecules isolated from the spleen of BALB/c mice; from tissue
T2 sequence (P01902 22-368): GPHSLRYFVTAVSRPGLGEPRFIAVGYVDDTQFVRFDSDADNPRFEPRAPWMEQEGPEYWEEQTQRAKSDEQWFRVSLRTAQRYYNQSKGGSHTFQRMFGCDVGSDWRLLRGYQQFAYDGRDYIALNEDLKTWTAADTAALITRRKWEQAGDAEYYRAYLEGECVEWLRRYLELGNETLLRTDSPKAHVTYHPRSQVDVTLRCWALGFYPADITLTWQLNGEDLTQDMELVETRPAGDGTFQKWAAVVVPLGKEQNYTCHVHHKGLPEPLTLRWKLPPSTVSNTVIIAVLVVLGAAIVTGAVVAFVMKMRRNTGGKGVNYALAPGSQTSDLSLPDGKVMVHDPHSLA
T2 sequence (P01887 21-119 partner): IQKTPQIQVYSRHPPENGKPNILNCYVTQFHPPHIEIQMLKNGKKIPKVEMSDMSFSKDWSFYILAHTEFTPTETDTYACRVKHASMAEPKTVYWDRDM
In words: Direct peptide binding assay with purified 125I-labeled conventional K^d. The method, then: as §3
Inhibition Peptide Binding Assay. Concentrations of 0.1-100 μM of competitor peptides are incubated in tubes for 0-3 h at 20° C. with ^125 I-HLA (10^-9 M) diluted in PBS--BSA--Tw containing the protease inhibitors as mentioned above. […] After extensive washing, the radioactivity in each well is counted and the percent of inhibition is calculated. […]

Test [7] has as its target T1, SC-K^d -15. In words: Direct peptide binding assay, solid phase, with purified 35S-labeled SC-Kd. Conditions: Table 10 (A), input 10,000 cpm, duplicates.
For test [8], the target named is HLA-DR3 (human). In words: direct peptide binding assay, peptide coated at 10 µg/ml pH 5, 125I-labeled HLA-DR3, input 200000 cpm, duplicate.
Test [9] has as its target HLA-DRw13 (human). In words: direct peptide binding assay, peptide coated at 10 µg/ml pH 5, 125I-labeled HLA-DRw13, input 200000 cpm, duplicate.
Test [10] deals with SC-K^d -15 (mouse) (UniProt P01887). Description: direct peptide binding assay, peptide coated at 10 µg/ml pH 5, 35S-labeled SC-Kd, input 10,000 cpm, duplicate.
The target of test [11] is HLA-DRw13 (human). Description: direct peptide binding assay, peptide coated at 30 µg/ml pH 9.6, 125I-labeled HLA-DRw13, input 200000 cpm, duplicate.
Test [12] addresses HLA-DR3 (human). Description: direct peptide binding assay, peptide coated at 30 µg/ml pH 9.6, 125I-labeled HLA-DR3, input 200000 cpm, duplicate.
The target in test [13] is SC-K^d -15 (mouse) (UniProt P01887). Description: direct peptide binding assay, peptide coated at 30 µg/ml pH 9.6, 35S-labeled SC-Kd, input 10,000 cpm, duplicate.
The target is the same in test [14]. Description: direct peptide binding assay, peptide coated at 5 µg/ml pH 9.6, 35S-labeled SC-Kd, input 6000 cpm, no coated peptide 228 and 223, duplicate.
The mark [15] stands for this setting: Table 10 (A), input 200000 cpm, peptide 10 μg/ml, pH 5, duplicates.

For TYQRTRALVTG [NPR 147-158], the “effect of added immunogenic peptide on immunoprecipitation of SC-K^d molecules” value in the test on mAb 34-1-2 is “no effect”.

As to HLA-Cw3 170-182 (peptide), the cpm bound to coated env 312-327 in the presence of the competitor was 15400 cpm and 15800 cpm in [1]; 367 cpm and 375 cpm with SC-K^d -15 (mouse) [2]. In addition, the cpm bound in test [3] was 1340 cpm and 1380 cpm; in the test with SC-K^d -15 (mouse) [4], 169 cpm and 117 cpm.

Take LFIHFRIGORHSR [vpr 68-80]: the “125I-labeled HLA-DR3 bound to coated peptide” value with HLA-DR3 (setting [15]) was 18582 cpm and 18245 cpm. Besides, in the test with HLA-DR3 (direct binding assay), the “binding of peptide to HLA-DR3 positive control (in words)” value was “significant binding”. In the test with DRw13 (setting [15]), the “125I-labeled HLA-DRw13 bound to coated peptide” value was 21838 cpm and 20593 cpm. In the test with DRw13 (direct binding assay), the “binding of peptide to DR213 positive control (in words)” value is recorded as “significant binding”. In addition, the “35S-labeled SC-Kd bound to coated env 312-327 in presence of the competing peptide” value with SC-K^d -15 [5] (Table 10 (B), competition, env 312-327 bound to plastic + labelled peptide as competitor, input 6000 cpm, duplicates) is 42 cpm and 41 cpm. The “competition with env 312-327 peptide bound to plastic (in words)” value with SC-K^d -15 [5] (competition experiment, SC-K^d) is recorded as “competed efficiently”; in [6] (competition experiment, K^d), “competed efficiently”. Further, the “binding of peptide to SC-K^d -15 (in words)” value in the test with SC-K^d -15 [5] is on record as “significant binding”. Moreover, in test [6] (Table 10 (B), competition, env 312-327 bound to plastic + labelled peptide as competitor, input 100000 cpm, duplicates), the “125I-labeled H-2K bound to coated env 312-327 in presence of the competing peptide” value was 359 cpm and 409 cpm. Further, the “35S-labeled SC-Kd bound to coated peptide” value in the test with SC-K^d -15 [7] (peptide 10 μg/ml, pH 5) was 710 cpm and 621 cpm.

For the substance IRIQRGPGRAFVTIGK [env 312-327], the “35S-labeled SC-Kd bound to coated peptide” value with SC-K^d -15 [5] (Table 10 (B), input 6000 cpm, peptide 5 μg/ml, pH 9.6, duplicates) was 390 cpm and 377 cpm; with SC-K^d -15 [7] (peptide 30 μg/ml, pH 9.6) it was 750 cpm and 712 cpm. The “binding of peptide to SC-K^d -15 (in words)” value in the test with SC-K^d -15 [5] is given as “significant binding”.

With HLA-A24 170-182 (peptide), the cpm bound in test [3] was 1060 cpm and 1300 cpm; in the test with SC-K^d -15 (mouse) [4], 284 cpm.

For HIV 1 Vpr. 68-80 (peptide), the cpm bound in the test with HLA-DR3 (human) [8] was 18600 cpm and 18200 cpm; with HLA-DRw13 (human) [9], 21800 cpm and 20600 cpm; with SC-K^d -15 (mouse) [10] it was 710 cpm and 621 cpm. Further, the cpm bound to coated env 312-327 in the presence of the competitor in test [1] was 359 cpm and 409 cpm; with SC-K^d -15 (mouse) [2], 42 cpm and 41 cpm.

On to HIV 1 Nef. 66-80 (peptide), for which the cpm bound with HLA-DRw13 (human) [11] is 1390 cpm and 1290 cpm; with HLA-DR3 (human) [12], 2320 cpm and 1820 cpm; with SC-K^d -15 (mouse) [13], 475 cpm and 397 cpm.

HIV 1 Env. 312-327 (peptide): the cpm bound is 390 cpm and 377 cpm with SC-K^d -15 (mouse) [14]; 22600 cpm with HLA-DRw13 (human) [11]; 3780 cpm with HLA-DR3 (human) [12]; 750 cpm and 712 cpm with SC-K^d -15 (mouse) [13].
